We go through one molecule from article PMC2171732 (The Journal of Cell Biology, 2005).

The test deals with T1, Myo2p globular tail subdomain II (residues 1346–1574), tryptic fragment (S. cerevisiae, UniProt P19524 1346-1574).
T1 sequence (looked up): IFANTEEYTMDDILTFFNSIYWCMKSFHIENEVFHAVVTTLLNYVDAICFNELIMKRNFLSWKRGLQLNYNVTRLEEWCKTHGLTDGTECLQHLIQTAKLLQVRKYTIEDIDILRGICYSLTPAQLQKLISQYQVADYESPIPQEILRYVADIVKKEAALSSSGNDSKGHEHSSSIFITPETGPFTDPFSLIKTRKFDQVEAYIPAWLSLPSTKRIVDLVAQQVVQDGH
Description: SEC.

Where only a bound is given, the exact number is not on record here.

B1: Myo2p globular tail subdomain I (residues 1131–1345), tryptic fragment (domain or fragment, S. cerevisiae, UniProt P19524 1131-1345, looked up)
chain: STPSSGNNHIDSLSVDRENGVNATQINEELYRLLEDTEILNQEITEGLLKGFEVPDAGVAIQLSKRDVVYPARILIIVLSEMWRFGLTKQSESFLAQVLTTIQKVVTQLKGNDLIPSGVFWLANVRELYSFVVFALNSILTEETFKNGMTDEEYKEYVSLVTELKDDFEALSYNIYNIWLKKLQKQLQKKAINAVVISESLPGFSAGETSGFLNK
B1: the equilibrium dissociation constant (Kd) was no more than 1 nM.
